From PMC6411929, “H-NS uses an autoinhibitory conformational switch for environment-controlled gene silencing” (Nucleic Acids Research, 2018) come the findings set out here.

Data set [1] has as its target H-NSΔs2 with an N-terminal mCherry fusion (mChH-NSΔs2) (Salmonella typhimurium) (UniProt P0A1S2). Nature of the data set: dynamic light scattering; hydrodynamic radius against temperature, 5 to 60°C; protein at 125 to 500 μM; 150, 250 or 500 mM NaCl; pH 6, 7 or 8 (100 mM MES, MOPS or HEPES).
Data set [2] addresses H-NS C-terminus (84–137) (Salmonella typhimurium) (UniProt P0A1S2). Nature of the data set: MST; 20 nM NT-647-labelled H-NS C-terminus, serial dilutions of the unlabelled partner; 50 mM Tris-HCl, 50 mM NaCl, 2 mM MgCl2, 0.005% Tween-20; 30 min incubation; single-binding-site fit; also repeated at 100, 250, 500 and 1000 mM NaCl.
In data set [3] the test system is H-NS full length (H-NSFL). Nature of the data set: MST. The following applies: room temperature (25 C), 50 mM NaCl, 2 mM Mg2+, MST: 50 mM Tris-HCl, 2 mM MgCl2, 0.005% Tween-20, pH not stated, anisotropy: 20 mM HEPES pH 7.5, 50 mM NaCl, 2 mM MgCl2, 25 or 37 C, 20 nM DNA.
Data set [4] has as its system H-NS full length (H-NSFL). Nature of the data set: fluorescence anisotropy. The note with it: 25 C, 50 mM NaCl, 2 mM Mg2+, MST: 50 mM Tris-HCl, 2 mM MgCl2, 0.005% Tween-20, pH not stated, anisotropy: 20 mM HEPES pH 7.5, 50 mM NaCl, 2 mM MgCl2, 25 or 37 C, 20 nM DNA. For orientation: Polarisation of emitted light reports the rotation of a fluorescent probe.
The subject of data set [5] is H-NS C-terminal region 84-137. Nature of the data set: MST. The note with it: MST: 50 mM Tris-HCl, 50 mM NaCl, 2 mM MgCl2, 0.005% Tween-20, pH not stated; anisotropy: 20 mM HEPES pH 7.5, 50 mM NaCl, 2 mM MgCl2, 25 or 37 C, 20 nM DNA.
Data set [6] deals with the molecule itself. Nature of the data set: SAXS; H-NS 2-57,C21S in solution at 1-4 mg/ml, 10 to 42°C and a range of salt and buffer conditions (150 mM NaCl, 1 mM EDTA, 20 mM Tris pH 7.5 in Figure 2B); patterns compared with parallel and antiparallel site1 dimer models.

The term stoichiometry N denotes the number of molecules, sites or subunits per partner or assembly. For the molecule “H-NSΔs2 with an N-terminal mCherry fusion (mChH-NSΔs2) (from UniProt P0A1S2 1-137) (natural protein)”, the stoichiometry N in data set [1] was determined as 2.

For orientation: Kd means the equilibrium constant for the complex coming apart. A high value points to weaker binding. “H-NS N-terminus (2–57), unlabelled, pET-M construct with N-terminal His6-tag (from UniProt P0A1S2 2-57) (domain or fragment)” had a dissociation constant (Kd) in data set [2] of 4.1 µM.

As to “101 bp DNA with four consensus H-NS motifs”, the equilibrium dissociation constant (Kd) is 7.4 µM in data set [3] and 10.2 µM in data set [4].

For the molecule 13 bp AT-rich DNA, the equilibrium dissociation constant (Kd) in data set [5] is 14.5 µM.

B1: Salmonella typhimurium H-NS_(2–57,C21S) (domain or fragment)
chain: SEALKILNNIRTLRAQARESTLETLEEMLEKLEVVVNERREEESAAAAEVEERTRK
notes: H-NS, Salmonella typhimurium, residues 2-57 (site1) with C21S
As to B1, the “stoichiometry N” value in data set [6] was found to be 2.
